Source: IntAct's records for PubMed 18940604

B1: Ras-related protein Rab-3A (Mus musculus), P63011 (parent)
chain: MASATDSRYGQKESSDQNFDYMFKILIIGNSSVGKTSFLFRYADDSFTPAFVSTVGIDFKVKTIYRNDKRIKLQIWDTAGQERYRTITTAYYRGAMGFILMYDITNEESFNAVQDWSTQIKTYSWDNAQVLLVGNKCDMEDERVVSSERGRQLADHLGFEFFEASAKDNINVKQTFERLVDVICEKMSESLDTADPAVTGAKQGPQLTDQQAPPHQDCAC
partner: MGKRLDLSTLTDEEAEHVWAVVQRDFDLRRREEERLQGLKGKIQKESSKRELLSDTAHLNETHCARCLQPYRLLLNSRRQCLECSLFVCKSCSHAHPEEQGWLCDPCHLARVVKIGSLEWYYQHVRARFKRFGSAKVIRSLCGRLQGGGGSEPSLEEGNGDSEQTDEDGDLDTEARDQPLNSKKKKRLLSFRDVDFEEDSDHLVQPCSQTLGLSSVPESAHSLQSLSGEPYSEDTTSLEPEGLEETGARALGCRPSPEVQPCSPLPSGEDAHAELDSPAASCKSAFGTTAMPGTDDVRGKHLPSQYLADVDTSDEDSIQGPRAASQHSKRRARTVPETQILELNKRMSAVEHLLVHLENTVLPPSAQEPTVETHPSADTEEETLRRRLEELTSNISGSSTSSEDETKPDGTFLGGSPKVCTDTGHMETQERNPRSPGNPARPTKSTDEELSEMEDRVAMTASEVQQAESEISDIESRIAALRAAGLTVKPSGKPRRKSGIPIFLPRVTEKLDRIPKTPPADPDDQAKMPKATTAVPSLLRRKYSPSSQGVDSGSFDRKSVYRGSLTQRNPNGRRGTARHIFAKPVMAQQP
B2: Ras-related protein Rab-27A (Mus musculus), Q9ERI2 (parent)
chain: MSDGDYDYLIKFLALGDSGVGKTSVLYQYTDGKFNSKFITTVGIDFREKRVVYRANGPDGAVGRGQRIHLQLWDTAGQERFRSLTTAFFRDAMGFLLLFDLTNEQSFLNVRNWISQLQMHAYCENPDIVLCGNKSDLEDQRAVKEEEARELAEKYGIPYFETSAANGTNISHAIEMLLDLIMKRMERCVDKSWIPEGVVRSNGHTSADQLSEEKEKGLCGC
partner: B1 partner

Variants of: B1
Conditions: with melph_mouse Mlph

| effect of a mutation on the interaction | Variant |
| --- | --- |
| disrupting interaction | G94D |
| disrupting interaction | F19Y |
| disrupting interaction | F19Y;G94D |
| disrupting interaction | I87L;Y91F;G94D |

Variants of: B2
Conditions: with melph_mouse Mlph

| effect of a mutation on the interaction | Variant |
| --- | --- |
| disrupting interaction | Y6F |
| disrupting interaction | Y6F;L84I;F88Y;D91G |
